Assay in all cases: Epitope mapping using Nectin-4 point mutants
Assay type in all cases: binding

For test [1], the target named is T1, human Nectin-4 Mutant 4 (A72P/G73N/G75S) (Homo sapiens, UniProt Q96NY8, A72P/G73N/G75S).
T1 construct: expressed in transfected cells; host or cells: HEK293T
T1 sequence (Q96NY8 32-510 A72P/G73N/G75S): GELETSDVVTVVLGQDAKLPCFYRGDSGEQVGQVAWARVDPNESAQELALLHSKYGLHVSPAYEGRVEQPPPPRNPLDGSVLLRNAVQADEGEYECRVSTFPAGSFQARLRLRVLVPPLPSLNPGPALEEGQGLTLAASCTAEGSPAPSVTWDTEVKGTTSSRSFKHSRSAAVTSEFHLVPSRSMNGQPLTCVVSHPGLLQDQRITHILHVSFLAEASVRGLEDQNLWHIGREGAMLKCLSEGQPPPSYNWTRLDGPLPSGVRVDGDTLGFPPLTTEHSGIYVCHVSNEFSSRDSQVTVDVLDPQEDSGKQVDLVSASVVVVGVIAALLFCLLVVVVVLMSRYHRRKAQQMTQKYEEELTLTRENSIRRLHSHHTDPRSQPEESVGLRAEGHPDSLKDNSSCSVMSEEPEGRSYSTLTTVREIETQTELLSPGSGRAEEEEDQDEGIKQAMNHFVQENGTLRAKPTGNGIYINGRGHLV
The text has this:
(§1) Combined with the published structures of the Nectin-4 domains, Nectin-4 mutations at surface exposed amino acids residues were designed. Nectin-4 domain structure was modelled based on Protein Data Bank reference: 4FRW (domains V et C1). Human Nectin-4 used was NCBI Reference Sequence: NP_112178.2, mouse Nectin-4 used was NCBI Reference Sequence: AAL79833.1, cynomolgus Nectin-4 used was NCBI Reference Sequence: XP_005541277.1, rat Nectin-4 used was NCBI Reference Sequence: NP_001102546.1. The cells expressing the Nectin-4 mutants are then be used for testing anti-Nectin-4 antibodies for loss of binding to different Nectin-4 mutants to identify antibodies that bind to the same site on Nectin-4. […] FIGS. 8A and 8B show different view of a molecular model of the human Nectin-4 protein, indicating the position of substituted residues in mutants 1, 2, 3, 4, 5, 6, 7, 8 and 9.
(§2) Nectin-4 mutants were generated by PCR. The sequences amplified were run on agarose gel and purified using the Macherey Nagel PCR Clean-Up Gel Extraction kit. The purified PCR products generated for each mutant were then ligated into an expression vector, with the ClonTech InFusion system. The vectors containing the mutated sequences were prepared as Miniprep and sequenced. After sequencing, the vectors containing the mutated sequences were prepared as Midiprep using the Promega PureYield™ Plasmid Midiprep System. HEK293T cells were grown in DMEM medium (Invitrogen), transfected with vectors using Invitrogen's Lipofectamine 2000 and incubated at 37° C. in a CO2 incubator for 48 hours prior to testing for transgene expression. The targeted amino acid mutations are shown in Table 13 below, listing the residue present in wild-type Nectin-4/position of residue/residue present in mutant Nectin-4, with position reference being to the Nectin-4 protein with leader peptide shown in SEQ ID NO: 1.
(§3) (+) means that antibodies-Nectin-4 association occurs.

Test [2] deals with T2, human Nectin-4 Mutant 3 (A76S/Q77R/E78A/S91N) (Homo sapiens, UniProt Q96NY8, A76S/E78A/Q77R/S91N).
T2 construct: expressed in transfected cells; host or cells: HEK293T
T2 sequence (Q96NY8 32-510 A76S/Q77R/E78A/S91N): T1 sequence (Q96NY8 32-510 A72P/G73N/G75S) with P41A, N42G, S44G, A45S, Q46R, E47A, S60N
Text: as §1, §2, §3

Test [3] deals with T3, human Nectin-4 Mutant 7 (S195A/K197T/S199A) (Homo sapiens, UniProt Q96NY8, K197T/S195A/S199A).
T3 construct: expressed in transfected cells; host or cells: HEK293T
T3 sequence (Q96NY8 32-510 S195A/K197T/S199A): T1 sequence (Q96NY8 32-510 A72P/G73N/G75S) with P41A, N42G, S44G, S164A, K166T, S168A
Text: as §1, §2, §3

For test [4], the target named is T4, human Nectin-4 Mutant 2 (V90S/P92A/A93S/E95A/G96D) (Homo sapiens, UniProt Q96NY8, A93S/E95A/G96D/P92A/V90S).
T4 construct: expressed in transfected cells; host or cells: HEK293T
T4 sequence (Q96NY8 32-510 V90S/P92A/A93S/E95A/G96D): T1 sequence (Q96NY8 32-510 A72P/G73N/G75S) with P41A, N42G, S44G, V59S, P61A, A62S, E64A, G65D
Text: as §1, §2, §3

Residue numbers refer to the chain shown, from its start.

B1: N41 (antibody, V domains shown)
VH: QVQLKQSGPGLVQPSQSLSITCTVSGFSLTNYGVHWVRQSPGKGLEWLGVIWSGGSTDYNAAFISRLSISKDTSKSQVFFKMNSLQADDTAIYYCARELIHAMDNWGQGTSVTVSS
VL: DIQMTQSPASLSVSVGETVTITCRASENIYSNLAWYQQKQGNSPQLLVFAATNLADGVPSRFSGSGSGTQYSLKINSLQSEDFGTYYCQHFWGTPTFGGGTKLEIK
For the molecule B1, the “association with Mutant 4” value in test [1] is given as “+”. Further, the “association with Mutant 3” value in test [2] was “+”. In test [3], the “association with Mutant 7” value was “+”. The “association with Mutant 2” value in test [4] is “+”.

B2: 5E7 (antibody, V domains shown)
VH: QVQLQQPGAELVKPGASVKLSCKASGYIFTSYWMHWVKQRPGQGLEWIGEIDPSDSYTNYNQKFKGKATLTLDKSSSTTYMQLSSLTSEDSAVYYCVRGYGNYGDYWGQGTTLTVSSASTKGP
VL: DVVMTQAAFSNPVTLGTSASISCRSSKSLLHSNGITYLYWYLQKPGQSPQLLIYQMSNLASGVPDRFSSSGSGTDFTLRISRVEAEDVGVYYCAQNLELPWTFGGGTKLEIKRTVAAP
With B2, in test [1], the “association with Mutant 4” value was “+”. Further, in test [2], the “association with Mutant 3” value is given as “+”. Further, in test [3], the “association with Mutant 7” value is “−”. Also, the “association with Mutant 2” value in test [4] is “+”.

For the origin of these results see US20250297004A1, “NECTIN-4 BINDING AGENTS” (INNATE PHARMA, priority 2022, published 2025).
